Measurements published in PMC3820547 (2013).

B1: Replication Protein A (Q9V1Z1, Q9V1Y9, Q9V1Z0), His-tagged RPA complex (complex)
chain 1: MVNVKNRNILRYSKVVDMTVLTKDRIIEIIERKTGMSREEIEEEIRKIMEEDPYLSEQGAAALLAERLGIDLIEKEEVSLMRISELYPGMDPREVNVVGRVLKKYPPREYTRKDGSVGRVASLIIYDDSGRARVVLWDAKVSEYYNKIEVGDVIKVLDAQVKESLSGLPELHINFRARIILNPDDPRVEMIPPLEEVRVATYTRKKIKDIEAGDRFVEVRGTIAKVYRVLTYDACPECKKKVDYDEGLGVWICPEHGEVQPIKMTILDFGLDDGTGYIRVTLFGDDAEELLGVSPEEIAEKIKELEESGLTTKEAARKLAEDEFYNIIGREIVVRGNVIEDRFLGLILRASSWEDVDYRREIERIKEELEKLGVM
chain 2: MVIEMKKRMPATRLYIKDILEGYFVKSEGDFEPNYLITKYARKVYRAKIVGTVVREPLIAEDETYGKFQVDDGTGVIWVLGFRDDTKFAKLVRKGDLVQVIGKIAEWRDDKQILVEGVSKVHPNMWILHRYETLKEKIEHIKKAKIALEIYNQYGITAKSKVIAKNKGIEEELLEVIDELYGIMMEERSIEEPMEELLEEEIPEEKEENELLEKAKEDILNILRQKRTAISRKYILKKLGDKYDEETIDDAITELLAQGEIYEPETGYYKLL
chain 3: MEVQVRRRKPAVERKISEIREEDTRVSLIGRVIKVDKMDYMFWLDDGTGVAIIESESDLPKVGQVVRVIGRIIRNEEGIHIYAEVIQDFSDADLEALEEIRELERKLLPRLEGEIVW

What was measured:
Assay in all cases: SPR; RPA bound to 32mer ssDNA
[1] = target: T1, DNA Polymerase D (Q9V2F3, Q9V2F4), HIS-tagged complex (Pyrococcus abyssi, UniProt Q9V2F3 1-619; Q9V2F4 1-1455)
[2] = target: T1, DNA Polymerase D (Q9V2F3, Q9V2F4), …; remark: listed apart in the source
[3] = target: B1
[4] = target: B1

Kd [1] | koff [2] | Kd [3] | koff [4] | Binder
0.051 µM | 0.000202 s⁻¹ | – | – | B1
– | – | 0.052 µM | 0.000454 s⁻¹ | Primase small subunit P41 (Q9V292), HIS-tagged (natural protein) MLLREVTKEERKEFYSNEWNAKQIPDFILQNLDKREFGFDHTGEGPSDRKNSYTDVRDLEDYIKATAPYAVYSSVAFYEKPQEMEGWLGAELVFDIDAKDLPLRRCNHEPGKVCPICLNDAKEIARDTLIVLKEELGFEDVHVVYSGRGYHIRVMDGWALSLDSKSRERILSFISASEIEDHSEFRKMLLERRGWFVLNHGYPRVFRLRFGYFILRVKVEHLINFGIRKNIAKRILDNKETIYEEFVRKGILAAFPDGVGIESLAKLFALSTRFSKAYFDGRVTVDLKRILRLPSTLHSKVGLIAKYIGNNERDVMRFNPFKHAVPKFRRKEVKEEYKRFLEENF
